Test results from the supplement of paper PMC9876800.

Tested on: peptide library, one residue held at a place counted from the S/T acceptor
Experiment: relative phosphorylation of the sub-library (ratio to the mean residue at this position); human; higher = residue favoured
Summary of the method: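 Human or orthologue kinase constructs, purified and recombinant, were incubated under kinase-specific conditions in 384-well plates with biotinylated degenerate peptide sub-libraries. Each sub-library fixed one residue at one position around a central Ser/Thr. Incubations lasted 90 min with peptides at 50 μM and 50 μM ATP spiked with γ-32P-ATP, after which spots on streptavidin membranes were phosphorimaged and quantified by densitometry. Relative sub-library phosphorylation is a ratio to the mean residue at that position.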

Sequence of PRPF4B, construct: aa519-end (Q13523 519-1007, looked up): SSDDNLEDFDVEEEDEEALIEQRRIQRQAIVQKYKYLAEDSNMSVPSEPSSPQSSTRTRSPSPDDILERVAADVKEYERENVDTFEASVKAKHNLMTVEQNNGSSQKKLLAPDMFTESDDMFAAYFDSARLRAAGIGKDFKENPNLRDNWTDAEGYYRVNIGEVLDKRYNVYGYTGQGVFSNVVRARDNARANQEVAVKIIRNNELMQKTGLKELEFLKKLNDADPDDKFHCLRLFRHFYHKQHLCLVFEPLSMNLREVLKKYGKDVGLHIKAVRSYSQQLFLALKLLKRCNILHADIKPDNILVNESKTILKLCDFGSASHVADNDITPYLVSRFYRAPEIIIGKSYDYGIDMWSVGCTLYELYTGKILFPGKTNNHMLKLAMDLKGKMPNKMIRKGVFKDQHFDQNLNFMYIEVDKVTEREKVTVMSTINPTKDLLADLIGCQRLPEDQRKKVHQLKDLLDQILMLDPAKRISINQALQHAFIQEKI
Sequence of RIPK1, construct: aa1-327 (Q13546 1-327, looked up): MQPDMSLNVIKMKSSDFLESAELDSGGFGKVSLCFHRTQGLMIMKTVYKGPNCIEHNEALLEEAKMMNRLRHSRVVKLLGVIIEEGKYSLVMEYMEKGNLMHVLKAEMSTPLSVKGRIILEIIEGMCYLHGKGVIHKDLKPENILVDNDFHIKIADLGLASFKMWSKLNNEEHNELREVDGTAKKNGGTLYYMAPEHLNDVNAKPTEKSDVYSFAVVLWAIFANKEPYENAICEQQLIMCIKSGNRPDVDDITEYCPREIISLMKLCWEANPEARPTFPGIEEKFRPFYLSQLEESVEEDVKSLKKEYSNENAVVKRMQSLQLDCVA

PRKCG, construct: Full length (from UniProt P05129)
relative phosphorylation
Settings | at +1 | at +2 | at +3 | at +4 | at -1 | at -2 | at -3 | at -4 | at -5
A fixed | 0.569 | 0.495 | 0.701 | 0.922 | 0.946 | 0.862 | 0.699 | 1.09 | 1.16
D fixed | 0.22 | 0.261 | 0.452 | 0.666 | 0.538 | 0.455 | 0.412 | 0.62 | 0.676
E fixed | 0.29 | 0.183 | 0.628 | 0.508 | 0.477 | 0.388 | 0.415 | 0.708 | 0.554
F fixed | 1.46 | 0.545 | 0.842 | 0.662 | 0.479 | 0.72 | 0.771 | 0.818 | 1.21
G fixed | 0.516 | 0.337 | 1.06 | 1.27 | 1.87 | 1.19 | 1.06 | 1.32 | 1.23
H fixed | 0.686 | 1.26 | 1.23 | 1.32 | 0.972 | 1.12 | 1.3 | 1.28 | 1.23
I fixed | 1.37 | 0.507 | 0.723 | 0.507 | 0.311 | 0.329 | 0.381 | 0.49 | 0.572
K fixed | 1.92 | 4.06 | 2.11 | 2.56 | 1.87 | 2.01 | 2 | 1.55 | 1.71
L fixed | 1.34 | 0.484 | 0.932 | 0.531 | 0.548 | 0.409 | 0.469 | 0.506 | 0.589
M fixed | 1.56 | 0.599 | 0.738 | 0.586 | 0.741 | 0.606 | 0.652 | 0.767 | 0.572
N fixed | 0.652 | 0.609 | 1.02 | 1.01 | 1.24 | 1.28 | 1.08 | 1.1 | 0.85
P fixed | 0.333 | 0.334 | 0.516 | 1.36 | 1.16 | 1.16 | 1.12 | 1.09 | 0.937
Q fixed | 1.15 | 0.688 | 0.856 | 1.09 | 1.08 | 1.21 | 0.934 | 1.05 | 0.887
R fixed | 1.98 | 4.33 | 2.43 | 1.97 | 2.85 | 2.99 | 3.78 | 1.94 | 1.71
V fixed | 1.15 | 0.48 | 0.608 | 0.563 | 0.497 | 0.418 | 0.496 | 0.639 | 0.723
W fixed | 0.751 | 0.6 | 1.03 | 0.817 | 0.558 | 1 | 0.707 | 1.23 | 1.54
Y fixed | 1.05 | 1.22 | 1.12 | 0.664 | 0.869 | 0.841 | 0.725 | 0.799 | 0.848
pThr fixed | 0.973 | 0.563 | 0.673 | 0.486 | 0.484 | 0.746 | 0.805 | 0.947 | 0.683
pTyr fixed | 0.794 | 0.916 | 0.911 | 0.498 | 0.875 | 0.842 | 0.973 | 0.86 | 0.8

PRPF4B, construct: aa519-end (from UniProt Q13523)
relative phosphorylation
Settings | at +1 | at +2 | at +3 | at +4 | at -1 | at -2 | at -3 | at -4 | at -5
A fixed | 0.571 | 0.959 | 0.8 | 0.921 | 1.05 | 1.22 | 1.02 | 1.06 | 0.939
D fixed | 0.544 | 0.683 | 0.635 | 0.83 | 0.907 | 0.693 | 0.586 | 1.81 | 1.13
E fixed | 0.929 | 0.685 | 0.59 | 0.808 | 1.25 | 0.553 | 0.512 | 1.16 | 0.966
F fixed | 0.507 | 1.27 | 0.722 | 0.958 | 0.81 | 1.27 | 0.409 | 0.856 | 0.905
G fixed | 0.774 | 0.741 | 1.05 | 1.4 | 0.744 | 1.3 | 8.94 | 1.77 | 0.991
H fixed | 0.596 | 1.07 | 1.01 | 1.02 | 0.844 | 0.907 | 0.507 | 1.01 | 0.832
I fixed | 0.68 | 1.42 | 0.911 | 0.934 | 0.863 | 1.21 | 0.404 | 0.681 | 0.831
K fixed | 0.56 | 0.713 | 1.08 | 1.03 | 0.894 | 0.582 | 0.382 | 0.747 | 1.04
L fixed | 0.548 | 0.954 | 0.91 | 0.9 | 1.03 | 0.866 | 0.41 | 0.866 | 0.83
M fixed | 0.689 | 1.05 | 0.747 | 1.04 | 1.27 | 0.815 | 0.43 | 0.75 | 0.842
N fixed | 0.665 | 0.968 | 1.05 | 0.83 | 0.826 | 0.745 | 0.538 | 1.08 | 0.931
P fixed | 5.85 | 0.725 | 2.53 | 1.02 | 0.785 | 1.47 | 0.587 | 1.13 | 1.18
Q fixed | 0.696 | 0.791 | 0.923 | 0.951 | 1.25 | 0.608 | 0.439 | 0.858 | 0.998
R fixed | 0.686 | 0.868 | 1.42 | 1.15 | 1.58 | 0.625 | 0.502 | 0.73 | 1.28
V fixed | 1.56 | 1.44 | 0.953 | 0.882 | 0.922 | 1 | 0.384 | 0.625 | 0.987
W fixed | 0.532 | 1.52 | 0.846 | 1.31 | 1.01 | 2.09 | 0.512 | 1.04 | 1
Y fixed | 0.612 | 1.16 | 0.825 | 1 | 0.969 | 1.04 | 0.435 | 0.812 | 1.31
pThr fixed | 0.638 | 0.803 | 0.794 | 0.583 | 0.68 | 0.828 | 0.697 | 1.72 | 0.911
pTyr fixed | 0.586 | 0.825 | 0.74 | 0.735 | 1.15 | 1.2 | 0.791 | 0.882 | 1.36

RIPK1, construct: aa1-327 (from UniProt Q13546)
relative phosphorylation
Settings | at +1 | at +2 | at +3 | at +4 | at -1 | at -2 | at -3 | at -4 | at -5
A fixed | 0.709 | 0.619 | 0.572 | 0.819 | 0.574 | 1.01 | 0.92 | 1.03 | 0.84
D fixed | 0.248 | 0.612 | 0.489 | 0.846 | 0.592 | 0.374 | 0.536 | 0.614 | 0.642
E fixed | 0.331 | 0.927 | 0.398 | 0.81 | 0.313 | 0.37 | 0.551 | 0.685 | 0.68
F fixed | 1.91 | 1.28 | 2 | 0.939 | 0.793 | 0.734 | 0.896 | 1.04 | 1.09
G fixed | 0.79 | 0.817 | 0.707 | 1.28 | 0.747 | 1.21 | 1.29 | 1.27 | 1.18
H fixed | 0.809 | 1.29 | 1.04 | 1.07 | 1.52 | 1.18 | 0.977 | 0.908 | 1.12
I fixed | 1.1 | 1.28 | 1.19 | 1.27 | 1.12 | 1.07 | 0.944 | 1.04 | 1.28
K fixed | 1.33 | 0.639 | 0.517 | 0.762 | 1.83 | 1.3 | 1.27 | 1.06 | 1.1
L fixed | 0.829 | 1.21 | 1.09 | 0.947 | 1.01 | 1.19 | 0.986 | 0.935 | 1.14
M fixed | 1.38 | 1.34 | 1.34 | 1.11 | 1.18 | 1.04 | 1.08 | 1.13 | 1.2
N fixed | 0.583 | 0.801 | 0.726 | 0.839 | 1.3 | 0.975 | 0.829 | 0.76 | 0.797
P fixed | 0.198 | 0.568 | 0.355 | 1.14 | 0.453 | 1.11 | 0.927 | 1.02 | 0.833
Q fixed | 1.19 | 0.891 | 0.703 | 0.787 | 0.85 | 0.796 | 0.743 | 0.689 | 0.667
R fixed | 2.48 | 1.02 | 1.13 | 0.945 | 1.97 | 1.94 | 2.35 | 1.4 | 1.32
V fixed | 0.96 | 1.03 | 0.917 | 1.04 | 1.03 | 1.26 | 0.845 | 1.22 | 1.16
W fixed | 1.01 | 1.03 | 1.88 | 1.22 | 0.675 | 0.763 | 1.02 | 1.29 | 0.987
Y fixed | 1.15 | 1.66 | 1.94 | 1.18 | 1.04 | 0.682 | 0.84 | 0.912 | 0.972
pThr fixed | 0.704 | 0.999 | 0.696 | 1.06 | 0.761 | 1.34 | 1.15 | 1.08 | 0.87
pTyr fixed | 0.391 | 0.788 | 0.54 | 0.968 | 0.683 | 0.719 | 1.19 | 0.795 | 0.72
